{"source": "patent US20140315986A1", "molecular_target": "IL-6R (UniProt P08887)", "sequence (P08887 20-468 limits assumed)": "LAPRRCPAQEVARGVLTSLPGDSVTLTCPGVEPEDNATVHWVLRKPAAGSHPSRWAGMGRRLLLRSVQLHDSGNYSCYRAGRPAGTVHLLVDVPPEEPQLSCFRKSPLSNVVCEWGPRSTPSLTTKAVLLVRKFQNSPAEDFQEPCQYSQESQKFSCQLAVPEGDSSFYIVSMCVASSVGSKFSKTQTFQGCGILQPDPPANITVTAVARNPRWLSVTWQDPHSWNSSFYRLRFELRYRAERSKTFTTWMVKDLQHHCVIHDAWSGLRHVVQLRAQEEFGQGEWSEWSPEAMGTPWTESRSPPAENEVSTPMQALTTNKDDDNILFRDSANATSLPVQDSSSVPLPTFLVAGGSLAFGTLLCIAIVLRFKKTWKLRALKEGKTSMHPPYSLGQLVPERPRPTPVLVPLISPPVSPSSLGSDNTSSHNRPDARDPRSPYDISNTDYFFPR", "assay": "cell-based or functional assay", "data": [{"substance": "Tocilizumab (antibody)", "values": [{"measurement": "Relative IL-6 Inhibition (%) of IL-6-dependent U266B1 cell proliferation, Tocilizumab at 1 µg/mL (6.7 × 10^-9 M)", "value": 15.1, "unit": "%"}, {"measurement": "Relative IL-6 Inhibition (%) of IL-6-dependent U266B1 cell proliferation, Tocilizumab at 10 µg/mL (6.7 × 10^-8 M)", "value": 60.7, "unit": "%"}, {"measurement": "Relative IL-6 Inhibition (%) of IL-6-dependent U266B1 cell proliferation, Tocilizumab at 100 µg/mL (6.7 × 10^-7 M)", "value": 57, "unit": "%"}]}]}
